Test results: patent US20180207294A1, “NON-ALCOHOLIC FATTY LIVER REGULATING FACTOR 14-3-3 PROTEIN” (Korea University Research and Business Foundation, priority 2015, published 2018)

Assays:
14-3-3γ and PPARγ2 = target: T1, 14-3-3γ and PPARγ2 (Homo sapiens, UniProt P37231); assay: Competitive GST-pull down assay, 14-3-3γ / PPARγ2 binding under 14-3-3β overexpression; conditions: as expression amount of 14-3-3β was increased (HA-14-3-3β DNA 2 and 4 μg); 10 μM pioglitazone; FIG. 5B
T1 construct: expressed in transfected cells; host or cells: HEK-293T
T1 sequence (P37231 1-505): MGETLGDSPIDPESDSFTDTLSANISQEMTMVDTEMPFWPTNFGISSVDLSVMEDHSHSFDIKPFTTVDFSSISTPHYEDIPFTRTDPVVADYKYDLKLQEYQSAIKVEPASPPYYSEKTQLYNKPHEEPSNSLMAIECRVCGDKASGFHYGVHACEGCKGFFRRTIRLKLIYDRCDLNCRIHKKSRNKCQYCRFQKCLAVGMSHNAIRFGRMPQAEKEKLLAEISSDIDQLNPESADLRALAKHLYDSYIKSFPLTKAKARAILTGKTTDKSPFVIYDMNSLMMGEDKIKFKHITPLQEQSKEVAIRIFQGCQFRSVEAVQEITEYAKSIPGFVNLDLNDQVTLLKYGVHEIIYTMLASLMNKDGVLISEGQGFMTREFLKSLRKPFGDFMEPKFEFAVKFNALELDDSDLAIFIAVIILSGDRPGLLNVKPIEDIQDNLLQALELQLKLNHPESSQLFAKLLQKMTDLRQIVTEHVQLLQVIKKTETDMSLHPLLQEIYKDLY
T1 sequence (P31946 1-246 partner): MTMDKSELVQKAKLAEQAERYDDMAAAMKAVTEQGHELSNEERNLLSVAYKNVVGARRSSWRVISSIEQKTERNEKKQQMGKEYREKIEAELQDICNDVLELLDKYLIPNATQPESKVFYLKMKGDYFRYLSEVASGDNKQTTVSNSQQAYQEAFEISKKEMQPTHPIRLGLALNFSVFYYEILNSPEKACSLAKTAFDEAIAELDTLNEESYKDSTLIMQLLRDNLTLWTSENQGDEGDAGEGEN
Protocol: (§1) From the previous experimental results, it was verified that 14-3-3β and 14-3-3γ were bound to the phosphorylated serine 273 residue of PPARγ2, and it was determined that the two proteins would competitively bind to the same residue. Thus, GST-pull down assay was carried out to verify competitive binding of 14-3-3β and 14-3-3γ with PPARγ2.
(§2) HEK-293T cells were seeded in a 100 mm plate at a density of 2×10^6 cells per each well, and then transfected with mGST-PPARγ2DNA (4 μg), GFP-14-3-3β DNA (4 μg) or GFP-14-3-3γ DNA (4 μg), and HA-14-3-3β DNA (2 and 4 μg) or HA-14-3-3γ DNA (2 and 4 μg) using an E-fection plus reagent (Lugen). A ratio of DNA to the E-fection plus reagent was 1:2 and this method was performed according to a manufacturer's manual. After transfection, the corresponding cells were treated with 10 μM of pioglitazone (Pio, Santa Cruz) for 24 hours, washed with ice-cold PBS, and lysed using 500 μl/well of a lysis buffer (150 mM NaCl, 1 mM EDTA, 1% Nonidet P-40, 5% glycerol, 25 mM tris-HCl, pH 7.5, protease inhibitor added), and the lysed cells were centrifuged at 10,000×g and 4° C. for 10 minutes to extract proteins. […]

14-3-3β and PPARγ2 = target: T2, 14-3-3β and PPARγ2 (Homo sapiens, UniProt P37231); assay: Competitive GST-pull down assay, 14-3-3β / PPARγ2 binding under 14-3-3γ overexpression; conditions: as expression amount of 14-3-3γ was increased (HA-14-3-3γ DNA 2 and 4 μg); 10 μM pioglitazone; FIG. 5A
T2 construct: expressed in transfected cells; host or cells: HEK-293T
T2 sequence (P37231 1-505): T1 sequence (P37231 1-505)
T2 sequence (P31946 1-246 partner): T1 sequence (P31946 1-246 partner)
Protocol: as §1, §2

Substance	binding between 14-3-3γ and PPARγ2 (14-3-3γ and PPARγ2)	binding between 14-3-3β and PPARγ2 (14-3-3β and PPARγ2)
14-3-3β: 14-3-3 isoform protein, overexpressed by DNA transfection; regulating factor that increases transcriptional activity of PPARγ2	reduced	–
14-3-3γ: 14-3-3 isoform protein, overexpressed by DNA transfection; regulating factor that decreases transcriptional activity of PPARγ2	–	reduced
